Where two headings read alike, the source gives them in different places.
B1: P983_AMBCA (other)
chain: EDTGTEDDFDYGNTGCPFPVLGNYKSNMTKPVGCKNKCGSGYEVLNDTTPCYVIDQKVFNNMVPLRQYSKCPLGFCENGECKPNDQAEDCYKGREEQK
B7: CXCL9_HUMAN (ligand)
chain: TPVVRKGRCSCISTNQGTIHLQSLKDLKQFAPSPSCEKIEIIATLKNGVQTCLNPDSADVKELIKKWEKQVSQKKKQKNGKKHQKKKVLKVRKSQRSRQKKTT

Key:
[1] = molecular target: CCL2_HUMAN (human, UniProt P13500 24-99); assay: cell-based or functional assay
[2] = molecular target: BK1.1FITC; assay: fluorescence polarisation, 50 nM peptide
[3] = molecular target: T1, P1243_AMBAM (Amblyomma americanum, UniProt A0A0C9S461 26-123); assay: BLI
T1 sequence: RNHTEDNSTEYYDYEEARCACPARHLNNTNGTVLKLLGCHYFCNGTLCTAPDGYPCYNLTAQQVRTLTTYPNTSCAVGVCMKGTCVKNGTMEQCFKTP

[4] = molecular target: T2, P974_AMBCA (Amblyomma cajennense, UniProt A0A023FDY8 22-118); assay: BLI
T2 sequence: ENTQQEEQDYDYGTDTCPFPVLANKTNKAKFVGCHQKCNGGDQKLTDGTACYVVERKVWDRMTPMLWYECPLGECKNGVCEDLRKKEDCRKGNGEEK

[5] = molecular target: T3, P672_RHIPU (Rhipicephalus pulchellus, UniProt L7MC74 22-125); assay: BLI
T3 sequence: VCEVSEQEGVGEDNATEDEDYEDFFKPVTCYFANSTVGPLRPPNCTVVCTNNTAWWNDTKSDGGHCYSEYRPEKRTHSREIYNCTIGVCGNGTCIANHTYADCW

[6] = molecular target: T4, P1180_AMBTR (Amblyomma triste, UniProt A0A023G6B6 26-116); assay: BLI
T4 sequence: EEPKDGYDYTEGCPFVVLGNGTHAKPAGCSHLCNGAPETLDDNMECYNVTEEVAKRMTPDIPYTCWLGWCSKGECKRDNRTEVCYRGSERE

[7] = molecular target: T5, P546_AMBCA (Amblyomma cajennense, UniProt A0A023FBW7 22-118); assay: BLI
T5 sequence: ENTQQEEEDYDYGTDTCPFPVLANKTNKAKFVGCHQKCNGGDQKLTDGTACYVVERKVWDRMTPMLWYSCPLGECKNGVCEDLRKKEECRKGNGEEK

[8] = molecular target: T6, P991_AMBCA (Amblyomma cajennense, UniProt A0A023FFD0 29-136); assay: BLI
T6 sequence: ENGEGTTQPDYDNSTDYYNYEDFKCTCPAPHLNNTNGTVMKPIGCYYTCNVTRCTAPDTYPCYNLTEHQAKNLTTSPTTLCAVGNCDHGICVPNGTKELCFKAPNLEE

[9] = molecular target: T7, P1181_AMBMA (Amblyomma maculatum, UniProt G3MIX6 26-115); assay: BLI
T7 sequence: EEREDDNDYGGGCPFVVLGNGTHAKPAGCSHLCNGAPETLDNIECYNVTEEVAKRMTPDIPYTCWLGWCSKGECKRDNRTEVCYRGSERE

[10] = molecular target: T8, P1183_AMBTR (Amblyomma triste, UniProt A0A023G9N9 26-115); assay: BLI
T8 sequence: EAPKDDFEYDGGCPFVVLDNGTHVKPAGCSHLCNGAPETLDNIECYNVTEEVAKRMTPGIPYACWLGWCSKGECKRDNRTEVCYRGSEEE

[11] = molecular target: T9, P467_RHIPU (Rhipicephalus pulchellus, UniProt L7M8Z8 22-127); assay: BLI
T9 sequence: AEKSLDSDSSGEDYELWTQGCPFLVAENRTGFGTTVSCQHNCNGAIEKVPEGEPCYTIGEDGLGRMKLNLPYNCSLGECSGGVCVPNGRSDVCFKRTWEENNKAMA

[12] = molecular target: T10, P1182_AMBMA (Amblyomma maculatum, UniProt G3MJ83 27-115); assay: BLI
T10 sequence: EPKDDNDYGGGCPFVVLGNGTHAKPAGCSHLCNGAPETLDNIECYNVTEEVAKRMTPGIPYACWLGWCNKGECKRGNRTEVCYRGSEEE

[13] = molecular target: B1; assay: BLI
[14] = molecular target: T11, P985_AMBPA (Amblyomma parvum, UniProt A0A023FT45 25-132); assay: BLI
T11 sequence: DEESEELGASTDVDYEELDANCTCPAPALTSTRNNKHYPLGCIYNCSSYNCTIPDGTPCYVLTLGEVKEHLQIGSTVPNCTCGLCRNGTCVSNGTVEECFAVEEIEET

[15] = molecular target: T1, P1243_AMBAM; assay: BLI; remark: listed apart in the source
[16] = molecular target: T12, CCL5_HUMAN (human, UniProt P13501 24-91); assay: yeast surface display FACS
T12 sequence: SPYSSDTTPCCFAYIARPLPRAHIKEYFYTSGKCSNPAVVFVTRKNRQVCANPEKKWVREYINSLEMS

[17] = molecular target: T13, P1134_IXORI (Ixodes ricinus, UniProt A0A0K8RAI0 32-135); assay: BLI
T13 sequence: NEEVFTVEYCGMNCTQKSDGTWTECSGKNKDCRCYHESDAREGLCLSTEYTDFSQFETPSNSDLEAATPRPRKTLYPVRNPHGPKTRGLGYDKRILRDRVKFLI

[18] = molecular target: T14, CXCL7_HUMAN (human, UniProt P02775 59-128); assay: BLI [Cont.]
T14 sequence: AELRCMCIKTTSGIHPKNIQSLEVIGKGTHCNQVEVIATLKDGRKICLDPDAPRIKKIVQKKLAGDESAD

[19] = molecular target: T15, CXCL5_HUMAN (human, UniProt P42830 41-114); assay: BLI [Cont.]
T15 sequence: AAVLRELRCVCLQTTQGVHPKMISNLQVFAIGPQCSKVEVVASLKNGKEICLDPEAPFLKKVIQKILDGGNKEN

[20] = molecular target: T16, CXCL8_HUMAN (human, UniProt P10145 28-99); assay: BLI [Cont.]
T16 sequence: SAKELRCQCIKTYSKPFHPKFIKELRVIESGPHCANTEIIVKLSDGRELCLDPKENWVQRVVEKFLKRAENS

[21] = molecular target: T17, CXCL4_HUMAN (human, UniProt P02776 32-101); assay: BLI [Cont.]
T17 sequence: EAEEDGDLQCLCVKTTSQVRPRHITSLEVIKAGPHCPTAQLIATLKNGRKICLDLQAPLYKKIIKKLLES

[22] = molecular target: B7; assay: BLI
[23] = molecular target: T18, CXCL14_HUMAN (human, UniProt O95715 35-111); assay: BLI
T18 sequence: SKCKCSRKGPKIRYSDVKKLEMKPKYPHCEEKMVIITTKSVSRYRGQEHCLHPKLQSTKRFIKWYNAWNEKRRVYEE

[24] = molecular target: CXCL12_HUMAN (human, UniProt P48061 22-89); assay: BLI
[25] = molecular target: T19, CXCL11_HUMAN (human, UniProt O14625 22-94); assay: yeast surface display FACS re-test
T19 sequence: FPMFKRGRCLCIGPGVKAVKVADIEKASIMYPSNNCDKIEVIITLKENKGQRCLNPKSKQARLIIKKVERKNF

[26] = molecular target: T20, CXCL6_HUMAN (human, UniProt P80162 38-114); assay: BLI [Cont.]
T20 sequence: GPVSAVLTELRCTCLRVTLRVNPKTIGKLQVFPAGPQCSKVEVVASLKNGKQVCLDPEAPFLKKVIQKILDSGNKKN

[27] = molecular target: T21, CXCL13_HUMAN (human, UniProt O43927 23-109); assay: BLI
T21 sequence: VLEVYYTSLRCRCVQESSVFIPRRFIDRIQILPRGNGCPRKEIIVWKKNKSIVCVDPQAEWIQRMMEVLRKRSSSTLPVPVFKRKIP

[28] = molecular target: T22, CXCL10_HUMAN (human, UniProt P02778 22-98); assay: BLI
T22 sequence: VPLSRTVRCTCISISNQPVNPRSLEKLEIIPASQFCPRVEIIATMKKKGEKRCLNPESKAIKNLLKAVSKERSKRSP

[29] = molecular target: T16, CXCL8_HUMAN; assay: yeast surface display FACS re-test

Sequence of CXCL12_HUMAN (P48061 22-89 limits assumed): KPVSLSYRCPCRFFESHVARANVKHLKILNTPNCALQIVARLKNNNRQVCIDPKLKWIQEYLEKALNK
Sequence of CCL2_HUMAN (P13500 24-99 limits assumed): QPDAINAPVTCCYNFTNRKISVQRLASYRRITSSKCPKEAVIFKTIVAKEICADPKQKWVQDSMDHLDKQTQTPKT

B1
IC50, THP1 cell migration [1]: 5.95 nM

B2: CCL3L1_HUMAN (ligand)
chain: APLAADTPTACCFSYTSRQIPQNFIADYFETSSQCSKPSVIFLTKRGRQVCADPSEEWVQKYVSDLELSA
binding result [2]: no binding (tested: 1 µM)
Kd [3]: 5.05 nM
Kd [4]: 13.1 nM
Kd [5]: 2.7 nM
Kd [6]: 2.2 nM
Kd [7]: 15 nM
Kd [8]: 1.4 nM
Kd [9]: 3.3 nM
Kd [10]: 110 nM
Kd [11]: 0.524 nM
Kd [12]: 9.5 nM
Kd [13]: 2.1 nM
Kd [14]: 7.5 nM
Kd [15]: 5.04 nM

B3: CCL13_HUMAN (ligand)
chain: not shown
binding result [2]: no binding (tested: 1 µM)
Kd [3]: 0.788 nM
Kd [4]: 22.9 nM
Kd [6]: 9 nM
Kd [7]: 13 nM
Kd [8]: 0.419 nM
Kd [9]: 19 nM
Kd [10]: 5.7 nM
Kd [11]: 2.56 nM
Kd [12]: 56 nM
Kd [13]: 17 nM
Kd [14]: 89 nM

B4: CCL14_HUMAN (ligand)
chain: TESSSRGPYHPSECCFTYTTYKIPRQRIMDYYETNSQCSKPGIVFITKRGHSVCTNPSDKWVQDYIKDMKEN
binding result [2]: no binding (tested: 1 µM)
Kd [3]: 0.816 nM
Kd [4]: 49.1 nM
Kd [5]: 5.5 nM
Kd [6]: 4.4 nM
Kd [7]: 28 nM
Kd [8]: 0.43 nM
Kd [9]: 47 nM
Kd [11]: 4.13 nM
Kd [12]: 50 nM
Kd [13]: 81 nM

B5: CCL23_HUMAN (ligand)
chain: RVTKDAETEFMMSKLPLENPVLLDRFHATSADCCISYTPRSIPCSLLESYFETNSECSKPGVIFLTKKGRRFCANPSDKQVQVCMRMLKLDTRIKTRKN
binding result [2]: no binding (tested: 1 µM)

B6: P1063_AMBTR (other)
chain: QSEVGKNVPGCGDTETLEAPPQEKPPYYEYKDEEGCTQKVLESWFQAGERSTGRGQKKRGHGRRPSRVLRTVDCRKNCTVGITALPDGHLCLVPRGDPFTRGGAIKYGCYLGDCASGHCQHRYETVSCRLPAPDTTAKPYYVTPEK
binding result [16]: binds

B7
binding result [17]: no binding (tested: 300 nM)

B8: P1090_IXORI (other)
chain: GSKELSGPESSENSIEAAFCDTNCTEGTDGVWSGCSAGCFCVHVGNSTVGRCMTFNGVDGG
binding result [18]: no binding (tested: 300 nM)
Kd [19]: 43 nM
binding result [20]: no binding (tested: 300 nM)
binding result [21]: no binding (tested: 300 nM)
binding result [22]: no binding (tested: 300 nM)
binding result [23]: no binding (tested: 300 nM)
binding result [24]: no binding (tested: 300 nM)
% cells over threshold fluorescence [25]: 32%

B9: P1170_IXORI (other)
chain: LGDEDQLFSVEYCGTNCTQQDDGKWTPCSGKNGKCKCYHEDGKRYGLCLYTEYTDFSQYPNPEGSEIENTRPRP
binding result [19]: no binding (tested: 300 nM)
binding result [26]: no binding (tested: 300 nM)
binding result [27]: no binding (tested: 300 nM)
binding result [22]: no binding (tested: 300 nM)
binding result [23]: no binding (tested: 300 nM)
binding result [24]: no binding (tested: 300 nM)
binding result [28]: no binding (tested: 300 nM)
% cells over threshold fluorescence [29]: 81%

From patent US20240034757A1 (OXFORD UNIVERSITY INNOVATION, published 2024)
